Laboratory results published in the nanobody polyreactivity screen of Harvey et al. (2022).

Assay: yeast display, Sf9 membrane polyspecificity reagent, FACS + sequencing; frameworks hold sequencing errors
Summary of the method: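 Galactose-induced (36–48 hours) yeast carrying a synthetic nanobody display library were exposed to 10% biotinylated, detergent-solubilized Sf9 membrane reagent at 4 °C for 1 hour. FACS followed streptavidin microbead enrichment, using low and high (top ~1%) gates for expression (anti-HA) and reagent binding (streptavidin). Colony PCR, MiSeq 2 × 250 sequencing and CDR-length filtering followed. Labels for polyreactivity reflect the gate of origin.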

Sequence	polyreactivity (PSR sort gate)
QVQHVESVGGLVQAGGSLRLSCAASGSIFSNNVMGWYRQAPGKERELVAAITVSGGRTYYADSVKGRFTISRDNAKNSVYLQMNSLKPEDTAVYYCATGVWKYSPDGDVGDQLSGYDYWGQGTQVTVSS	low polyreactivity
QVQLVESGGGLVQAGGSLRLSCAASGSIFPAYAMGWYRQAPGTERELVAAITFSGGRTYYADSVKGRFTISRDNAKNTVYLQMNSLKPEDTAVYDCAAYGAPSGTGAKYGYWGQGTQVTVSS	low polyreactivity
QVQLVESGGGLVQAGGSLRLSCAASGRTFTVNAMGWYRPAPGKERELVAAISGRSGRTSYADSVKGRFTISRDNAKNNVYLQMNSLKPEDTAVYSCNASGGYSTGSRFEYWGQGTQVTVSS	high polyreactivity
QVQLVESGGGLVQAGGSLRLSCAASGFIFDDYAMGWNRQAPGKERELVAAITDSGDGTDYADSVKGRFTISRDNAKNTVYLQMNSLKPEDTAVYYCAAGLWYSYDYWGQGTQVTVSS	high polyreactivity
QGQLVESGGGLVQAGGSLRLSCAASGFTFYYNAMGWYRQAPGQERELVAAISTRGGNTYYADSVKGRFTISRDNAKNTVYLQMNSLKPEDTAVYYCARKIRREGRYDYWGQGTQVTVSS	high polyreactivity
QDQLVESGGGLVQAGGSLRLSCAASGSIFGRYAMGWYRQAPGKERELVANITSGDSTNYADSVKGRFTISRDNAKNTVYLQMNSLKPEDTAVYYCAADTIYFYYYRHWYSKYYYWGQGTQVTVSS	high polyreactivity
QVQLVESGGGLVQAGGTLRLSCAASGRIFPYYAMGWYRQAPGKERELVAAINSGGSTYYADSVKGRFTISRDNEKNTVYLQMNSLKPEDSAVYYCAVDPGYYDEYNYWGEGTQVTVSS	low polyreactivity
QVQLVESGGGLVQAGGSLRISCAASGRTLFNKARGRYRQAPGKERELVAAINWSGTSTYYADSVKGRFTISRDNAKNTVYLQMNSLKPEDTAVYYCAARYSTVSTRRKPYNYWGQGTQVTVSS	high polyreactivity
QVQLVESGGGLVQAGGRLRLSCAASGSTFGLNAMGRYRHAPGKEREFVASINFNDGSTYYADSVKGRFTISRDNAKNTVYLRMNSLKPEDTAVYYCAVELWWKWPFYYWGQGTQVTVSS	high polyreactivity
QVQLVESGGGLVQAGGSLRLSCAASGSIFYIYAMGWYRQAPGKETELVASISRSGGSTYYADSVKGRFTISRDNAKNTVYLQMNSLKPEDTAVYYCAAVITFYRYPPGETYYYWGQGTQVTVSS	high polyreactivity
QVQLVESGGGLVQAGGSLRLSCAASGRIFRSYAMGWYRQAPGKERELVAAITWGGGRTYYADSVKGRFTISRDNAKNTVYLQMNSLKPEDTAVYYCNTLAYPYYRGSKYDYWGQGTQVTVSS	high polyreactivity
QGQLVESGGRLVQAGGSLRLSCAASGFIFDAYAMGWYRQAPWKERELVAAIDYSGGNTYYADSVTGRFTISRDNAKNTVYLQMNSLTPEDTAVYYCNADYAGSFWSREYDYWGQGTQVTVSS	low polyreactivity
QVQLVESGGGLVQAGGSLGLSCAASGFIFYAYVMGRYRQAPGKERELVAAISRNGGSTYYADSVKGRFTISRDNAKKSVYLQMNSLKPEDTAVYYCAALSYYRYSQEDDYWGQGTQVTVSS	high polyreactivity
QVQLVESGGGLVQAGGSLRLSCAASGLIFSSYAMGWYRQAPGKERELVAAITGSGGRTYYADSVKGRFTISRDNAKNTVYLQMNSLKPEDTAVYYCAAKYPDPRYYTGYDYWGQGTQVTVSS	high polyreactivity
QDQLVESGRGLVQAGGSLRLSCAASGSTFSYYAIGWYRQAPGKERELVAAISRRGGSTYYADSVKGRFTISRDNAKNSVYLQMNSLKPEDTAVYYCNRVTYTGYDSWGQGTQVTVSS	high polyreactivity
QVQLVESGGGLVQAGGSLRLSCAASGRTFTYYAMGWYRQAPGKERELVARISSSGSTNYADSVKGRFTISRDNAKNTVYLQMNSLKPEDTAVYYCAARYWRGPRYDYWGQGTQVTVSS	high polyreactivity

Sequence	polyreactivity (PSR sort gate)
QVQLQESGGGLVQAGGSLRLSCAASGSIFDGFNMGWYRQAPGKEREFVAAISYGASTYYADSVKGRFTVSRDNAKNSVYLQMNILKPEDTAVYYCAVVPSDGNLFSYWGQGTQVTVSS	low polyreactivity
QVQLVESGGGLVQAGGSLRLSCAASGFTFRRNVIGWYRQAPGKERELVAAIRGSDGSTYYADSVKGRFTNSRDNAKNTVYLQMNSLKPEDTAVYYCNVVGIGLYRKMGYWGQGTQVTVSS	high polyreactivity
QVQLVESGGGIVQEGGSLRLSCAASGRIFGTNAMGWYRQAPGKERELVATITRGGGNTYYADSVKGRFTISRDNAKNTVYLQMKSLKPEDTAVYYCAAKFHRFAWYSHYDYWGQGTQVTVSS	low polyreactivity
QVQLVESGGGLVQAGGSLRLSCAASGIIFHVYAMGWYRQAPGKERELVAAISDDGSTNYADSVKGRFTISRDNAKNTVYLQMNSLKPEDTAVYYCAKESWGRLYYRYDYWGQGTQVTVSA	low polyreactivity
QVQLVESGGGLVQAGGSLRLSCAASGFIFLGKAMGWYRQAPAKERELVAAISSGGSTYADSVKGRFTISSDNAKNTVYLQMYSLKPEDTAVYYFAVDRAFRAQNYHEYYYWGQGTQVTVSS	low polyreactivity
QVQLVESGGGLVQAGGSLRLSCAASGITFVSNVMGWYRQAPGKEREFVAAINVSGDSTTYADSVKGRFTISRDNAKNTVYLQRNSLKPEDTAVYYCAAEYNFPEFPWGGEYDYWGQGTQVTVSS	low polyreactivity
QVQLVESGGGLVQAGGSLRLSCGASGLTFAYYAMRWYRQAPGKERELVAAISSSGRSTYYADSVKGRFTISRDNAKNTVYLQMNSLTEEDTAVSYCDKVGPWYYWERDYWGQCTQVTVSS	high polyreactivity
QVQLVESGGGLVQAGGSLRLSCAASGGTFYINTMGWNRQAPGKERELVATITIVVSTKYADSVKGRFTISRDNAKNTVYLQMNSLNPEDTAVYYCAKDDVYRDSFLVFDGEMVYWGQGTQVTVSS	low polyreactivity
QVQLVESGGGLVQAGGSLRLSCSASGFILLAYAMGWYRQAHGKERELVAAITSGGSTHYADSVKGRFTISRDNAKNTVYLQMNSLKPEDTAVYYCANDTVFRYSGNTYGYWGQGTQVTVSS	low polyreactivity
QVQHVESGRGLVQAGGSLRLSCAASGLTFSRYAMGWYRQAPGKERELVAAITRSGGSTYYADSVKGRFTISRDNEKNTVYLQMKSLKPEDSAVYYCARTFTDRYGHWYGYWGQGTQVTVSS	high polyreactivity
QVQLVESGGGLVQAGGSLRLSCAASGIIFGYNVMGWYRQAPGKERELVAAISGSGSSTYYADSVKGRFTISRDNAKITVYLQMNSLKPEDTAVYYCAARRYSTKRWRMYYWGQGTQVTVSS	high polyreactivity
QVQLLESGGGLVQAGGSLRLSCAASGRIFQFYAMGWYRKAPGKERELVAANSVRGGSTYYAHSVKGRFTISRDNEKNTVYLQMNSLKPEDTAVYYCAASKWGGYYYWGQGTQVTVSS	high polyreactivity
QVQLVESGGGLVQAGRSLRLSCAASGSPLYSYAMGWYRQAPGKEREFVAAITSDDGSTYYADSVKGRFTISRDNAKNTVYLPLTSLKPEDTAVYYCATAASVEYNYWGQCTQVTVSS	low polyreactivity
QVQLVESGAGLVQAGGSLRLSCAASGSIFRVYAMGWYRQAPGKERELVAAISQSADSTYYADSVKGRFTILRDNAKYTVYLQMNSLKPEDTAVYYCAAEYPYIYRFDYWGQGTQVTVSS	low polyreactivity
QVQLVESGGGLVQAGGSLRLSCAASGFTFSRYTMGWYRQAPGKERELVAAINRRGGSTYYADSVKGRFTISRDNAKNTVYLQMNSLKPEDTAVYYCAAAVYLGRFGVILGYWGQGTQVTVSS	high polyreactivity
QVQLVESGGGLVQAGGSLRLSCDASGRIFGLYDMGWYRQAPGKERELVAAISRGGGSTYYADSVKGRFTISRDNAKNTVYLQMNSLKPEDTAVYYCATGLGYFSRLDYWGQGTQVTVSS	low polyreactivity
